Measurements as given in US20120253017A1 (published 2012).

Columns and labels:
[1] = target: T1, Mouse cKIT ECD-H6 (mouse, UniProt P05532 25-527); assay: BIAcore, SCF on CM5 chip
T1 construct: extracellular domain; also called mouse c-kit (His tagged)
T1 sequence (looked up): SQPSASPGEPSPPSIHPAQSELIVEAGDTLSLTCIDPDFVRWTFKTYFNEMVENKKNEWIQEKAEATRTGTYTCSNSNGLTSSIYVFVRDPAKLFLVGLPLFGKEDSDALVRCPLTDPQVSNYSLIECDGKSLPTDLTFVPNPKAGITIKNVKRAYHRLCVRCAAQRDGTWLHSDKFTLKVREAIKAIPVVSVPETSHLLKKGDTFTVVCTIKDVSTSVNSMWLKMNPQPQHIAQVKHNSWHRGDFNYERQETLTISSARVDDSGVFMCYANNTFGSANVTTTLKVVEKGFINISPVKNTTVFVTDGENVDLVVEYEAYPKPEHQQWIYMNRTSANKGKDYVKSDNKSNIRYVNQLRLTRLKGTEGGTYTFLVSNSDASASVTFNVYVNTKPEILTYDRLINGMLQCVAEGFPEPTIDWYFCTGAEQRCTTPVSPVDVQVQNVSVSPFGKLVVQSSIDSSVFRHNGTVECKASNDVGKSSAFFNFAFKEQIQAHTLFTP
Protocol: (§1) Human and murine SCF were covalently attached to a CM5 BIAcore chip (GE Healthcare) in the presence of acetate pH 4 for both antigens. cKIT from various species were diluted to 1 μM in HBS-EP buffer (GE Healthcare) and run on the BIAcore in a 2-fold serial dilution to 1 nM.
(§2) Anti-human and anti-mouse SCF monoclonal antibodies (mAb) were used as controls (R&D systems).

[2] = target: T2, Human cKIT ECD-Fc (human, UniProt P10721 26-524); assay: BIAcore, SCF on CM5 chip
T2 construct: extracellular domain; also called hcKIT; human c-KIT ECD-hIgG1 Fc fusion; not shown: human IgG1 Fc (pDOM38)
T2 sequence (P10721 26-524): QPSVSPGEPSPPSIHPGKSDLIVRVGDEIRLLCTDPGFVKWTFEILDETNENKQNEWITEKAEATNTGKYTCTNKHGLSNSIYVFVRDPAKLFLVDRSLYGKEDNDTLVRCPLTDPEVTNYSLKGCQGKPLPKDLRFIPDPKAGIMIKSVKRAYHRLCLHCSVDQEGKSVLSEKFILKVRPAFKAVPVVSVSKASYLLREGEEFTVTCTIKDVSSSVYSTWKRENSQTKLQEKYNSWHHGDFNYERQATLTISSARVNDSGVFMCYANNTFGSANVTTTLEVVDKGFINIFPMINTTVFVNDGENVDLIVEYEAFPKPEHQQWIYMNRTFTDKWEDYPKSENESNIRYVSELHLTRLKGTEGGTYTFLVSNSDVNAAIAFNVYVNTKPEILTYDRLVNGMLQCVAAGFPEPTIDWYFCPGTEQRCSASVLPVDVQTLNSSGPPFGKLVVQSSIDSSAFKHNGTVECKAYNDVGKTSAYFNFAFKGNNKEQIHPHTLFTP
Protocol: as §1, §2

binding result [1]: no binding (tested: 1 µM)
Kd [2]: 17.7 nM
B1: mouse Stem Cell Factor, 6xHIS tag (ligand, UniProt P20826 26-190, looked up)
chain: KEICGNPVTDNVKDITKLVANLPNDYMITLNYVAGMDVLPSHCWLRDMVIQLSLSLTTLLDKFSNISEGLSNYSIIDKLGKIVDDLVLCMEENAPKNIKESPKRPETRSFTPEEFFSIFNRSIDAFKDFMVASDTSDCVLSSTLGPEKDSRVSVTKPFMLPPVAA
notes: also called mSCF; murine SCF
